Reference: paper PMC3132758

Key:
[1] = biological target: CdvB from Metallosphaera sedula (ESCRT-III-like), full length (Metallosphaera sedula); experiment: SEC; CdvB and CdvC mixed, 20 µM each, on Superose 6; fractions analysed by SDS-PAGE; void volume peak holds both
[2] = biological target: CdvC from Metallosphaera sedula (Vps4-like AAA ATPase) (Metallosphaera sedula); experiment: SEC; CdvC alone at >75 µM (180 µM) on Superose 6; single high molecular weight peak

CdvC from Metallosphaera sedula (Vps4-like AAA ATPase)
stoichiometry N [1]: 1

CdvC from Metallosphaera sedula (Vps4-like AAA ATPase) (enzyme)
stoichiometry N [2]: 12
